Measurements: patent publication US5688918, “p53as protein and antibody therefor” (Health Research, Inc.)

Tests used:
p53as (Mus musculus) = p53as (Mus musculus) (UniProt P02340); experiment: cell_activity
p53 [1] = biological target: T1, p53 (UniProt P02340 P02340:1-390); experiment: cell_activity
p53 [2] = biological target: T1, p53; experiment: cell_activity; CAT reporter, mouse (10)1 cells; conditions: tags: none; pCMVp53r; chain copies: 4
Experimental: Spontaneously arising immortalized murine BALB/c embryo fibroblast (10) 1 is a p53 negative cell line which was transfected with 2 μg pSV-β-gal plasmid (Promegal), 3 μg 50-2 plasmid (Dr. Levine) which contains 2 copies of a 50 bp sequence corresponding to p53 binding site in muscle creatinine kinase promoter-enhancer upstream of a basic CAT reporter plasmid, and 5 μg pCMVp53as, pCMVp53r or pCMV vector control. Transfection was done using the calcium phosphate method. The cells were harvested 48 hors post transfection and lysed by three freeze-thaw cycles. The supernatant was assayed for CAT activity using diffusion.

[3] = CAT reporter, human Saos-2 cells
[4] = luciferase reporter, mouse (10)1 cells

T1 sequence (P02340 whole entry, one chain of several): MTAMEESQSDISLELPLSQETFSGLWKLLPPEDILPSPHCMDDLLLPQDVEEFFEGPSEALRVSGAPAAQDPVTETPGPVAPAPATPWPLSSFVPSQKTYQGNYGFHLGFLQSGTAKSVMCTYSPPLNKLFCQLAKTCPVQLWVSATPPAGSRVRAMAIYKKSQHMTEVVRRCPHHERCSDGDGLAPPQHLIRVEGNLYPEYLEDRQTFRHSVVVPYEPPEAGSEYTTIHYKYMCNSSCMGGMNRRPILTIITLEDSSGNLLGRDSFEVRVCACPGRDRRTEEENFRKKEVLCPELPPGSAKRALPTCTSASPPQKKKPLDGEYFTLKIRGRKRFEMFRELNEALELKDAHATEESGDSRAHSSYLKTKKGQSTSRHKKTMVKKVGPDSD
Sequence of p53as (Mus musculus) (P02340 1-364): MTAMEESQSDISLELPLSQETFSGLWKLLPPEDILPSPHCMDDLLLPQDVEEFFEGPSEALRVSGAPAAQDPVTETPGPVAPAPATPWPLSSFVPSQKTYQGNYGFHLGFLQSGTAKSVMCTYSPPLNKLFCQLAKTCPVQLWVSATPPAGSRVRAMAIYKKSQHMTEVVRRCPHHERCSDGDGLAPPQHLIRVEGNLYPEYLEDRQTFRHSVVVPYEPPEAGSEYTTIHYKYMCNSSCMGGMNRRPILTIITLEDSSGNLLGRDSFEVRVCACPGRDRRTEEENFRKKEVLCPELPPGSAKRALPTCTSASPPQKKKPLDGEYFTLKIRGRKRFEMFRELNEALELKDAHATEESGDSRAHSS

PG13 (13 repeats of p53 binding site)
activity (fold activation) (p53as (Mus musculus); [3]): 9
activity (fold activation) (p53 [1]; [3]): 14

WAF-1 promoter (WWP-1 luciferase)
activity (fold activation) (p53as (Mus musculus); [4]): 14
activity (fold activation) (p53 [1]; [4]): 15

B1: muscle creatine kinase promoter-enhancer p53 site (50-2 reporter, 2 copies of 50 bp) (dsDNA)
DNA 1: TGGCAAGCCTATGACATGGCCGGGGCCTGCCTCTCTCTGCCTCTGACCCT
DNA 2: AGGGTCAGAGGCAGAGAGAGGCAGGCCCCGGCCATGTCATAGGCTTGCCA
activity (p53 [2]): 27 fold activation
